Experimental data from publication PMC8708005, “Poly(C)-binding Protein 2 Regulates the p53 Expression via Interactions with the 5′-Terminal Region of p53 mRNA”.
Where a chain is given by its changes, count along the chain named.

Assays:
[1] = molecular target: T1, PCBP2 (poly(C)-binding protein 2, hnRNP E2) (UniProt Q15366 1-365); test: EMSA; no complex at 4-4000 nM; smeared shift at 5 and 10 uM; EMSA: 25 mM NaH2PO4 pH 8.0, 50 mM NaCl, 25 mM KCl, 2.5 mM MgCl2, 10 mM imidazole, 0.5 mM DTT, 0.5 mM PMSF, 7% glycerol, 0.5 U/uL RNasin, 75 ng/uL BSA, 100 ng/uL yeast tRNA; 4 °C 25 min (also 25 °C 15 min, 37 °C 10 min); settings: protein: recombinant; label: 5'-32P; hairpin
T1 sequence (Q15366 whole entry): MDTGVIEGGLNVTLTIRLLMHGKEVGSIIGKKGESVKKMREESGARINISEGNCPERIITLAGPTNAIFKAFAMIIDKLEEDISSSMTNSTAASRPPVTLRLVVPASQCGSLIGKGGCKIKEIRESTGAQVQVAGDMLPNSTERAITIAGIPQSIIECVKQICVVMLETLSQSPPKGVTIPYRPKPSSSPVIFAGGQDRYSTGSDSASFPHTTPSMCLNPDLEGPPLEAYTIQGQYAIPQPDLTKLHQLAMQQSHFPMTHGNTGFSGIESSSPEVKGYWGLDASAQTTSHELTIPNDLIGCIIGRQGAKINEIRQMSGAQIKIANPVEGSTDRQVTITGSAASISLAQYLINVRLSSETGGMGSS

[2] = molecular target: T1, PCBP2 (poly(C)-binding protein 2, hnRNP …); test: EMSA; 4 °C 25 min, 2.5 mM Mg2+; additional intermediate complexes; text also reports decreased binding ability at fixed protein (Fig 3c); EMSA: 25 mM NaH2PO4 pH 8.0, 50 mM NaCl, 25 mM KCl, 2.5 mM MgCl2, 10 mM imidazole, 0.5 mM DTT, 0.5 mM PMSF, 7% glycerol, 0.5 U/uL RNasin, 75 ng/uL BSA, 100 ng/uL yeast tRNA; 4 °C 25 min (also 25 °C 15 min, 37 °C 10 min); settings: protein: recombinant; label: 5'-32P; shortened hairpin; C74-G144 pair replaces U57-G168
[3] = molecular target: T1, PCBP2 (poly(C)-binding protein 2, hnRNP …); test: EMSA; 4 °C 25 min, 2.5 mM Mg2+, yeast tRNA and BSA; EMSA: 25 mM NaH2PO4 pH 8.0, 50 mM NaCl, 25 mM KCl, 2.5 mM MgCl2, 10 mM imidazole, 0.5 mM DTT, 0.5 mM PMSF, 7% glycerol, 0.5 U/uL RNasin, 75 ng/uL BSA, 100 ng/uL yeast tRNA; 4 °C 25 min (also 25 °C 15 min, 37 °C 10 min); settings: protein: recombinant; label: 5'-32P (EMSA); hairpins G56-C169 and U180-A218
[4] = molecular target: T1, PCBP2 (poly(C)-binding protein 2, hnRNP …); test: EMSA; 1000 and 2500 nM PCBP2, 4 °C; no change vs P1-Δ40p53; EMSA: 25 mM NaH2PO4 pH 8.0, 50 mM NaCl, 25 mM KCl, 2.5 mM MgCl2, 10 mM imidazole, 0.5 mM DTT, 0.5 mM PMSF, 7% glycerol, 0.5 U/uL RNasin, 75 ng/uL BSA, 100 ng/uL yeast tRNA; 4 °C 25 min (also 25 °C 15 min, 37 °C 10 min); settings: protein: recombinant, label: 5'-32P

B1: isolated hairpin G56-C169 RNA (structured_RNA)
RNA: GUUCGGGCUGGGAGCGUGCUUUCCACGACGGUGACACGCUUCCCUGGAUUGGCAGCCAGACUGCCUUCCGGGUCACUGCCAUGGAGGAGCCGCAGUCAGAUCCUAGCGUCGAGC
- Kd [1]: > 4000 nM

B2: P1-Δ40p53(Δ57) RNA (structured_RNA)
RNA: GGCUAGAGCCACCGUCCAGGGAGCAGGUAGCUGCUGGGCUCCGGGGACACUUUGCGCUUUCCACGACGGUGACACGCUUCCCGGUCACUGCCAUGGAGGAGCCCCCUCUGAGUCAGGAAACAUUUUCAGACCUAUGGAAACUACUUCCUGAAAACAACGUUCUGUCCCCCUUGCCGUCCCAAGCAAUG
- Kd [2]: 53 ± 6 nM

B3: P1-Δ40p53 RNA (structured_RNA)
RNA: GGCUAGAGCCACCGUCCAGGGAGCAGGUAGCUGCUGGGCUCCGGGGACACUUUGCGUUCGGGCUGGGAGCGUGCUUUCCACGACGGUGACACGCUUCCCUGGAUUGGCAGCCAGACUGCCUUCCGGGUCACUGCCAUGGAGGAGCCGCAGUCAGAUCCUAGCGUCGAGCCCCCUCUGAGUCAGGAAACAUUUUCAGACCUAUGGAAACUACUUCCUGAAAACAACGUUCUGUCCCCCUUGCCGUCCCAAGCAAUG
- Kd [3]: 95 ± 6 nM

B4: P1-Δ40p53(S) RNA (structured_RNA)
RNA: B3 RNA with C81U, A83G
- binding result ([4]; AUG1 in double-stranded region): binds

B5: P1-Δ40p53(L) RNA (structured_RNA)
RNA: B3 RNA with U77A, C78A, C79G, A80C
- binding result ([4]; AUG1 in internal loop): binds
